Reference: publication PMC6144793 (Nucleic Acids Research, 2018)

Target: the molecule itself
Test: SEC-MALS

B1: His6-tagged Hvo_0019 (enzyme, Haloferax volcanii)
chain: MSVRDEFDAWAADGRDKGMEDRHWHTAKHALARMPVEEGDTVVDLGTGSGYALRALRDTKGIGRGFGLDGSPEMVQNARAYTDTDDLSFLVGDFDDLPFDDDSVDHVWSMEAFYYAADPHHTLEEIARILKPGGTFYCAVNYYEENVHSHEWQEHISIDMTRWSHAEYREAFRDAGLHVAEQDSIADLDIDIPAATEFPTDDWETREAMVERYRTFGTLLTVGVAP
  binding result: binds
